We go through two substances from publication PMC8991601.

What is called Km is the concentration of substrate that gives half-maximal velocity.

In data set [1] the test system is N[C@@H](CC(=O)O)C(=O)Nc1ccc([N+](=O)[O-])cc1. As to the kind of experiment: purified protein. To be noted: 10 mM Tris-HCl, pH 7.5, 50 °C.
The subject of data set [2] is N[C@@H](CCC(=O)O)C(=O)Nc1ccc([N+](=O)[O-])cc1. The data set is described as follows: purified protein. The settings on record: 10 mM Tris-HCl, pH 7.5, 50 °C.

Take “bDNPEP (recombinant bovine aspartyl aminopeptidase) (Bos taurus)”: the figures for the Km in data set [1] and in data set [2] were 389 µM and 314 µM, respectively.

Regarding “cDNPEP (recombinant chicken aspartyl aminopeptidase) (Gallus gallus)”, the Km is 767 µM in data set [1] and 137 µM in data set [2].
